Experimental findings from patent publication US20170321240 are described below.

Data set [1] has as its system Right TALEN Slc35c1 (synthetic construct (Xanthomonas AvrBs3 scaffold)). Description: cell_activity. The following applies: TALEN pair with left TALEN, 19-bp spacer; T7E1 assay 72 h, CHO cells.
The subject of data set [2] is Left TALEN Slc35c1 (synthetic construct (Xanthomonas AvrBs3 scaffold)). Description: cell_activity. As to conditions: TALEN pair with right TALEN, 19-bp spacer; T7E1 assay 72 h, CHO cells.

As for Slc35c1 exon 1 right TALEN half-site, the activity (% gene modification) in data set [1] came out at 7.3. Slc35c1 exon 1 left TALEN half-site yielded an activity (% gene modification) in data set [2] of 7.3.
